What all share (experiment): ELISA; recombinant Ang1 or Ang2 immobilised on Maxisorp plates, blocked with TBS, 0.1% Triton-X100, 5% milk powder; Tie2 ectodomain proteins bound for 1 h; detected with anti-Tie2 ectodomain antibodies; EC50 = concentration of ectodomain for 50% of maximal binding
Common to all, as to conditions: both partners purified

For test [1], the target named is T1, Angiopoietin-2 (UniProt O15123 19-496).
T1 construct: recombinant Ang2; the residue numbers printed for Ang2 (Asp448, Phe469, Ser480) come from the cited structure 2GY7; also called Ang2; source: recombinant
T1 sequence (looked up): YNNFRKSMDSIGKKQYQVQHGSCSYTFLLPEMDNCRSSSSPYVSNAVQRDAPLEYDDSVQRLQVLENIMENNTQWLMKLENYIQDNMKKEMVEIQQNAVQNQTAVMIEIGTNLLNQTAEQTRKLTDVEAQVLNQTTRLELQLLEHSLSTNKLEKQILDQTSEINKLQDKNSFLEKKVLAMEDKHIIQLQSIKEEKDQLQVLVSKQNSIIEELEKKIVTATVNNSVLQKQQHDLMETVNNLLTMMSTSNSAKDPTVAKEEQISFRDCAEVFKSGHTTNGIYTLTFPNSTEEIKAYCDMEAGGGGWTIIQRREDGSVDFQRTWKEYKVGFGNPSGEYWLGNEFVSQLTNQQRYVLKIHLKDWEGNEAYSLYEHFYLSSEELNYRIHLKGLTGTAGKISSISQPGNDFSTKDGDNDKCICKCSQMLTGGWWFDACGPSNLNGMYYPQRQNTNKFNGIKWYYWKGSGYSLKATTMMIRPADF

Test [2] deals with T2, Angiopoietin-1 (UniProt Q15389 16-498).
T2 construct: recombinant Ang1; the residue numbers printed for Ang1 (Gln415, Asp450, Leu471, Tyr478) come from the cited structure 4K0V; also called Ang1; source: recombinant
T2 sequence (looked up): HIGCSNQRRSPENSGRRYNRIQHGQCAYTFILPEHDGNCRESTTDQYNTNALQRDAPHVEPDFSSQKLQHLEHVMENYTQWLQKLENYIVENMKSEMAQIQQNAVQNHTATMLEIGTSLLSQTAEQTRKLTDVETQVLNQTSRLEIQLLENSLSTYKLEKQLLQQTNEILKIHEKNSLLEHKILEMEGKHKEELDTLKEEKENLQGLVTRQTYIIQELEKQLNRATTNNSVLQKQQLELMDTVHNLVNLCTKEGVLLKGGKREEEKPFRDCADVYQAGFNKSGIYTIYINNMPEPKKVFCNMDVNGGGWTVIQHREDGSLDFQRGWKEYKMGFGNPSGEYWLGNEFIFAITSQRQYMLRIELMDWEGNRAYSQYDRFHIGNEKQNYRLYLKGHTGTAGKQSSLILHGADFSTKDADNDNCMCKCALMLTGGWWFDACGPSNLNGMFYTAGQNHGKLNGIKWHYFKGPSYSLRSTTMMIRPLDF

For test [3], the target named is T1, Angiopoietin-2. The source holds these as a separate data set.
The target of test [4] is T2, Angiopoietin-1. This is another data set of the same source.

Where a chain is given by its changes, count along the chain named. Names may count otherwise.

B1: R5 Tie2 ectodomain-Fc (Phe161Ile, deletion of Arg167 and His168, Ser164Leu, Pro171Ser) (Fc fusion, human, UniProt Q02763 23-442, looked up)
chain: AMDLILINSLPLVSDAETSLTCIASGWRPHEPITIGRDFEALMNQHQDPLEVTQDVTREWAKKVVWKREKASKINGAYFCEGRVRGEAIRIRTMKMRQQASFLPATLTMTVDKGDNVNISFKKVLIKEEDAVIYKNGSIIHLVPEVSDILEVHLPHAQPQDAGVYSARYIGGNLFTSAFTRLIVRRCEAQKWGPECNHLCTACMNNGVCHEDTGECICPPGFMGRTCEKACELHTFGRTCKERCSGQEGCKSYVFCLPDPYGCSCATGWKGLQCNEACHPGFYGPDCKLRCSCNNGEMCDRFQGCLCSPGWQGLQCEREGIQRMTPKIVDLPDHIEVNSGKFNPICKASGWPLPTNEEMTLVKPDGTVLHPKDFNHTDHFSVAIFTIHRILPPDSGVWVCSVNTVAGMVEKPFNISVK
notes: signal peptide in the construct; Tie2 ectodomain, human, residues 1-442, variant from directed evolution; also called R5-Fc; evolved ectodomain; source: Hek293, transfected, purified from culture medium (nickel chromatography); not shown: Fc (fragment of human Fc immunoglobulin domain, after a GS4 linker), C-terminal, kept
What is called EC50 is the concentration giving half of the maximal effect. Consider B1, for which the EC50 in the test with Angiopoietin-2 [1] came out at 3.4 nM.

B2: R5 Tie2 ectodomain-Fc with Ser171 reverted back to Pro (Fc fusion, human, UniProt Q02763 23-442, looked up)
chain: B1 chain with S147P
notes: signal peptide in the construct; Tie2 ectodomain, human, residues 1-442; also called evolved ectodomain in which Ser171 was reverted back to Pro; source: Hek293, transfected, purified from culture medium (nickel chromatography); not shown: Fc (fragment of human Fc immunoglobulin domain, after a GS4 linker), C-terminal, kept
With B2, in the test with Angiopoietin-2 [1], the binding result was “binds”.

B3: monomeric wild-type Tie2 ectodomain (domain or fragment, human, UniProt Q02763 23-748, looked up)
chain: AMDLILINSLPLVSDAETSLTCIASGWRPHEPITIGRDFEALMNQHQDPLEVTQDVTREWAKKVVWKREKASKINGAYFCEGRVRGEAIRIRTMKMRQQASFLPATLTMTVDKGDNVNISFKKVLIKEEDAVIYKNGSFIHSVPRHEVPDILEVHLPHAQPQDAGVYSARYIGGNLFTSAFTRLIVRRCEAQKWGPECNHLCTACMNNGVCHEDTGECICPPGFMGRTCEKACELHTFGRTCKERCSGQEGCKSYVFCLPDPYGCSCATGWKGLQCNEACHPGFYGPDCKLRCSCNNGEMCDRFQGCLCSPGWQGLQCEREGIQRMTPKIVDLPDHIEVNSGKFNPICKASGWPLPTNEEMTLVKPDGTVLHPKDFNHTDHFSVAIFTIHRILPPDSGVWVCSVNTVAGMVEKPFNISVKVLPKPLNAPNVIDTGHNFAVINISSEPYFGDGPIKSKKLLYKPVNHYEAWQHIQVTNEIVTLNYLEPRTEYELCVQLVRRGEGGEGHPGPVRRFTTASIGLPPPRGLNLLPKSQTTLNLTWQPIFPSSEDDFYVEVERRSVQKSDQQNIKVPGNLTSVLLNNLHPREQYVVRARVNTKAQGEWSEDLTAWTLSDILPPQPENIKISNITHSSAVISWTILDGYSISSITIRYKVQGKNEDQHVDVKIKNATITQYQLKGLEPETAYQVDIFAENNIGSSNPAFSHELVTLPESQAPADLGGGKMLL
notes: wild-type Tie2 ectodomain, monomeric form; also called Wt monomer; monomeric Tie2
B3: the EC50 with Angiopoietin-2 [1] worked out at 22.7 nM.

B4: wild-type Tie2 ectodomain-Fc (Fc fusion, human, UniProt Q02763 23-442, looked up)
chain: AMDLILINSLPLVSDAETSLTCIASGWRPHEPITIGRDFEALMNQHQDPLEVTQDVTREWAKKVVWKREKASKINGAYFCEGRVRGEAIRIRTMKMRQQASFLPATLTMTVDKGDNVNISFKKVLIKEEDAVIYKNGSFIHSVPRHEVPDILEVHLPHAQPQDAGVYSARYIGGNLFTSAFTRLIVRRCEAQKWGPECNHLCTACMNNGVCHEDTGECICPPGFMGRTCEKACELHTFGRTCKERCSGQEGCKSYVFCLPDPYGCSCATGWKGLQCNEACHPGFYGPDCKLRCSCNNGEMCDRFQGCLCSPGWQGLQCEREGIQRMTPKIVDLPDHIEVNSGKFNPICKASGWPLPTNEEMTLVKPDGTVLHPKDFNHTDHFSVAIFTIHRILPPDSGVWVCSVNTVAGMVEKPFNISVK
notes: signal peptide in the construct; Tie2 ectodomain, human, residues 1-442; Order on the chain: Tie2 1-442, GS4 linker, human Fc fragment, His6; also called Wt; Wt-Tie2; source: Hek293, transfected, purified from culture medium (nickel chromatography); not shown: Fc (fragment of human Fc immunoglobulin domain, after a GS4 linker), C-terminal, kept
On to B4, for which the EC50 in the test with Angiopoietin-1 [2] stood at 0.66 nM; with Angiopoietin-2 [3] it was 1.37 nM.

B5: Tie2 ectodomain-Fc E169A (Fc fusion, human, UniProt Q02763 23-442, looked up)
chain: B4 chain with E147A
notes: signal peptide in the construct; Tie2 ectodomain, human, residues 1-442; also called Glu169Ala; source: Hek293, transfected, purified from culture medium (nickel chromatography); not shown: Fc (fragment of human Fc immunoglobulin domain, after a GS4 linker), C-terminal, kept
As to B5, the values for the EC50 with Angiopoietin-1 [2] and with Angiopoietin-2 [3] were 9 nM and 3.94 nM, respectively.

B6: Tie2 ectodomain-Fc I162A (Fc fusion, human, UniProt Q02763 23-442, looked up)
chain: B4 chain with I140A
notes: signal peptide in the construct; Tie2 ectodomain, human, residues 1-442; source: Hek293, transfected, purified from culture medium (nickel chromatography); not shown: Fc (fragment of human Fc immunoglobulin domain, after a GS4 linker), C-terminal, kept
Take B6: the EC50 was found to be 6.38 nM with Angiopoietin-1 [2] and 23.1 nM in the test with Angiopoietin-2 [3].

B7: Tie2 ectodomain-Fc Arg167Ala/His168Ala (Fc fusion, human, UniProt Q02763 23-442, looked up)
chain: B4 chain with R145A, H146A
notes: signal peptide in the construct; Tie2 ectodomain, human, residues 1-442; also called Arg167Ala/His168Ala Tie2 ectodomain mutant; double substitution; source: Hek293, transfected, purified from culture medium (nickel chromatography); not shown: Fc (fragment of human Fc immunoglobulin domain, after a GS4 linker), C-terminal, kept
Consider B7, for which the binding result with Angiopoietin-1 [4] and in the test with Angiopoietin-2 [1] was “binds” in each case.

B8: Tie2 ectodomain-Fc R167A (Fc fusion, human, UniProt Q02763 23-442, looked up)
chain: B4 chain with R145A
notes: signal peptide in the construct; Tie2 ectodomain, human, residues 1-442; also called Arg167Ala; source: Hek293, transfected, purified from culture medium (nickel chromatography); not shown: Fc (fragment of human Fc immunoglobulin domain, after a GS4 linker), C-terminal, kept
In the case of B8, the EC50 is 26.6 nM with Angiopoietin-1 [2] and 10.3 nM in the test with Angiopoietin-2 [3].

B9: Tie2 ectodomain-Fc S164A (Fc fusion, human, UniProt Q02763 23-442, looked up)
chain: B4 chain with S142A
notes: as for B6
For the molecule B9, the EC50 with Angiopoietin-1 [2] turned out to be 0.44 nM; with Angiopoietin-2 [3] it was 14.4 nM.

B10: Tie2 ectodomain-Fc H163A (Fc fusion, human, UniProt Q02763 23-442, looked up)
chain: B4 chain with H141A
notes: as for B6
Take B10: the EC50 with Angiopoietin-1 [2] is 1.38 nM; with Angiopoietin-2 [3] it was 5.88 nM.

B11: Tie2 ectodomain-Fc V165A (Fc fusion, human, UniProt Q02763 23-442, looked up)
chain: B4 chain with V143A
notes: as for B6
Consider B11, for which the EC50 came to 14.3 nM with Angiopoietin-1 [2] and 77.7 nM with Angiopoietin-2 [3].

B12: Tie2 ectodomain-Fc H168A (Fc fusion, human, UniProt Q02763 23-442, looked up)
chain: B4 chain with H146A
notes: signal peptide in the construct; Tie2 ectodomain, human, residues 1-442; also called Tie2(H168A); His168Ala; source: Hek293, transfected, purified from culture medium (nickel chromatography); not shown: Fc (fragment of human Fc immunoglobulin domain, after a GS4 linker), C-terminal, kept
On to B12, for which the values for the concentration giving a half-maximal response (EC50) in the test with Angiopoietin-1 [2] and with Angiopoietin-2 [3] were 26.4 nM and 0.5 nM, respectively.

B13: Tie2 ectodomain-Fc Arg167Ala/His168Ala/Glu169Ala (Fc fusion, human, UniProt Q02763 23-442, looked up)
chain: B4 chain with R145A, H146A, E147A
notes: signal peptide in the construct; Tie2 ectodomain, human, residues 1-442; also called triple alanine substitution of Arg167, His168 and Glu169; source: Hek293, transfected, purified from culture medium (nickel chromatography); not shown: Fc (fragment of human Fc immunoglobulin domain, after a GS4 linker), C-terminal, kept
Consider B13, for which the binding result in the test with Angiopoietin-2 [1] is reported as “binds”.
